# B1: intestinal lactoferrin receptor (LfR) (receptor, human (endogenous in Caco-2), UniProt Q8WWA0 19-298, looked up)
# chain: TDEANTYFKEWTCSSSPSLPRSCKEIKDECPSAFDGLYFLRTENGVIYQTFCDMTSGGGGWTLVASVHENDMRGKCTVGDRWSSQQGSKAVYPEGDGNWANYNTFGSAEAATSDDYKNPGYYDIQAKDLGIWHVPNKSPMQHWRNSSLLRYRTDTGFLQTLGHNLFGIYQKYPVKYGEGKCWTDNGPVIPVVYDFGDAQKTASYYSPYGQREFTAGFVQFRVFNNERAANALCAGMRVTGCNTEHHCIGGGGYFPEASPQQCGDFSGFDWSGYGTHVGYS
# Molecular target: the molecule itself
# Assay: SDS-PAGE and immunoblot
protein,measurement,value
B1,stoichiometry N,3

# Reference: publication PMC3178039 (Journal of cellular physiology, 2011)
